In the nanobody polyreactivity screen of Harvey et al. (2022):

Assay: yeast display, Sf9 membrane polyspecificity reagent, FACS + sequencing; frameworks hold sequencing errors
Summary of the method: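 Synthetic nanobody libraries on Saccharomyces cerevisiae BJ5465 were galactose-induced for 36–48 hours, stained 1 hour at 4 °C with 10% biotinylated, detergent-solubilized Sf9 membrane reagent and enriched on streptavidin microbeads. FACS then separated cells into low and high (top ~1%) gates by anti-HA (expression) and streptavidin (reagent binding) fluorescence. Genes were colony-PCR amplified, MiSeq 2 × 250 sequenced and CDR-length filtered. A clone's polyreactivity label is that of its gate of origin.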

| Sequence | polyreactivity (PSR sort gate) |
| --- | --- |
| HVQLVESGGGLVQAGGSRRLSCAASGRIFYGYAMGWYRQAPGKERELVAGISYRGARTYYADSVKGRFTISRDNAKNTVYLQMNSLKPEDTAVYYCNAVPYYPFAFGALDYWGQGTQVTVSS | high polyreactivity |
| HVQLVESGGGLVQAGVSLRLSCAASGSIFSPYAMGGFRPAPGKERELLAAISSSGGSTYYADSVKRRFTISRDNAKNTVYLQMNSLKPEDTAVYYCAADSATGIFDRLNYWGQGTQVTVSS | high polyreactivity |
| HVQLVESGGGLVQEGGRLRLSCAASGFIFQVNAMGWYRQAPGKERELVAAITGSDGSTSYADSVKGRFTISRDNAKNNVYLQMNSLKPEDTAVYYCAKEESVSTHYYHLIRFDQWGQGTQVTVSS | low polyreactivity |
| HVQLVESGGGLVQPGGSLRLSCAASGLTFPSYAMGWYRQAPGKERELVAAISSGDSTNYADSVKGRFTISRDNAKNTVYLQMNSLKPEDTAVYYCAVGLPHGGRSLYGSWYRFDYWGQGTQVTVSS | low polyreactivity |
| HVQLVESGRGLVQAGGSLRLSCAASGSTFPFYDRGWYRQAPGKERQLVDAITASVGNTYYADSVKGRFTISRDNAKNTVYLQMNSLKPEDTAVYYCNADELYTYIPDFDYWGQGSQVTVSS | low polyreactivity |
| HVQLVESGVGFVQAGGSLRLSCASSGSIFQAYAMGWYRQAPGNERELVAAISDSGGSTYYADSVKGRFTISRDNAKNTVYLQMNSLKPEDTEVYYCAADVYTRFWRVYRVDYWGQGTQVTVSS | low polyreactivity |
| HVQLVESGVGLVQAGGSLRLRCAASGRTLSVYAMGWYRQAPGKERELVAAITIRGGRTYYADSVKGRFTISRDNAKNTVYLQMNSLKPEDTAVYYCAAPPYVKMDYWGQGTQVTVSS | high polyreactivity |
| HVQLVETGGGLVQAGGSLRLSCAASGRIFYPYPMGWYRQAPRKERELLARISWGGGATYYADSVKGRFTISRDNAQNTVFLQMNSLKPEDTAVYYCAASYVGYWYRRGYGYWGQGTQVTVSS | high polyreactivity |
| HYHLVESGGGLVQAGGSLRLSCAASAFTFVQYAMGWYRQAPGKERELVATISKSGGITYYADSVKGRFTISRDNAKNTVYLQMNSLKPEDTAVYYCAAAWYYSSRGFHATWGHDYWGQGTQVTVSS | low polyreactivity |
| KVQLVEAGGGLVQAGGSLRLSCAASGFILIYYAMGWYRQAPGKERELFAAITWSGGSTYYADSVKGRFTISRDNEKNTVYLKMNTLKQEETAVDYCAAYVGGGDSNADHDYWGQGTQVTVSA | low polyreactivity |
| KVQLVESGAGLVQAGGSLRLSCAASGITFGWYAMGWYRQAPGKERELVATINSGGSTNYADSVKGRFTISRDNAQNSVYLQMNSLKAEDTAVYYCAADGLIRWYDYWGQGTQVTVSS | low polyreactivity |
| KVQLVESGGGLFQAGGSLGLSCAPSGNTFYHYAMGWYRQSPGKERELVAGIRYNGGSTYYADSVKGRFTISRDNAKNTVYLHMKSLKPEDTAVYYCATIGYTGYAYRYGYWGQGTQVTVSS | high polyreactivity |
| KVQLVESGGGLVQAGGRLRISCAASGRICYSNVMGWSRQAPGKERELVAAIFSGGSTYYADSVKGRFTISRDNAKNTVYLQMNSLKPEDTAVYDCAADYYYPFDYWGQGTQVTVSS | low polyreactivity |
| KVQLVESGGGLVQAGGSLRLSCAASGFIFYYYAMGGYRQAPGKERELVAVLTESGSSTYYADSVKGRFTISRDNAKNSVYLQMNRLKPEDTAVYYCNADFWPYTGKYDYWGQGTQVTVSS | low polyreactivity |
| KVQLVESGGGLVQAGGSLRLSCAASGFIFYYYAMGWYRQAPGKERELVAAISTDGGSTYYADSVKGRFTISRDNAKNTVYLQMNSLKPEDTAVYYCNAPYYGWGYWPLEYIRYEYWGQGTQVTVSS | low polyreactivity |
| KVQLVESGGGLVQAGGSLRLSCAASGFTFYIYAMGWYRPAPGKEREVVAAISARGGSTYYADSVKGRFTISRDNAKTTGYLQMNSLKPEDTAVDYCNALYIYAEIYGRGFWGQGTQVTVSS | high polyreactivity |
| KVQLVESGGGLVQAGGSLRLSCAASGITFYDYDMGWYRQEHGKERELVSAITWNGGSTYYADSVKGRFTISRDNAKNTVYLQMNSLKPVDTAVYYCAAESYYIYYYWGQGTQVTVSS | high polyreactivity |
